Source: patent US9969998B2, “Compositions of adenosine deaminase-2 (ADA2), variants thereof and methods of using same” (Halozyme, Inc., priority 2014, dated 2018)

Assay: Adenosine deaminase (ADA) enzymatic activity assay kit
Assay type: biochemical
Settings: for adenosine deaminase activity mU/mL / ΔA/min, adenosine deaminase activity: protein diluted to 5 μg/mL, serially diluted 2 fold (Table 21); for % activity vs. WT: relative to rHuADA2 WT (Table 21)
Protocol: Adenosine deaminase activity was determined using an adenosine deaminase (ADA) assay kit (Genway, San Diego, Calif.; Cat. No. BQ014EALD) with minor modifications. The ADA assay is based on the enzymatic deamination of adenosine to inosine, which is converted to hypoxanthine by purine nucleoside phosphorylase (PNP). Hypoxanthine is then converted to uric acid and hydrogen peroxide by xanthine oxidase (XOD). Hydrogen peroxide is further reacted with N-Ethyl-N-(2-hydroxy-3-sulfopropyl)-3-methylaniline (EHSPT) and 4-aminoantipyrine (4-AA) in the presence of peroxidase (POD) to generate quinone dye, which is monitored in a kinetic manner.
Briefly, 5 μL samples in duplicates (at appropriate dilutions to measure steady-state, non-saturating enzyme activity) were added to 120 μL R1 reagent (provided by the manufacturer; 50 mM Tris HCL, pH 8.0, 2 mM 4-AA, 0.1 U/mL PNP, 0.2 U/mL XOD, 0.6 U/mL peroxidase) in a 96 well plate, according to manufacturer's instructions. The mixtures were incubated at 37° C. for approximately 5 min and 60 μL of R2 reagent (provided by the manufacturer; 50 mM Tris HCl, pH 4.0, 10 mM Adenosine, 2 mM EHSPT) was added to the mixtures. Then, change in absorbance (AA) at 556 nm over time at 37° C. was measured. One unit of ADA is the amount of ADA that generates one μmole of inosine from adenosine per minute at 37° C. Adenosine deaminase activity in mU/mL was calculated using the following formula: 1 mU/mL=(ΔA/min×Tv)/(Sv×ϵ×1) • where Tv=total volume (185 μL), Sv=sample volume (5 μL), ϵ=32.2×10^−3 μM^−1 cm^−1, 1=0.5 cm.
Adenosine deaminase activity of WT rHuADA2 and variants tested above were determined using the adenosine deaminase activity (ADA) assay described in Example 4. Activity was assessed on purified rHuADA2 WT and variants that were diluted to 5 μg/mL, and then serially diluted 2 fold to generate 4 measurements.
Adenosine deaminase activity of PEGylated rHuADA2 and variants was assessed using the method described in Example 4, and compared to the activity of the corresponding non-PEGylated form.
Selected candidate variants described in Table 8 above, containing an amino acid substitution in a residue that play a role in enzymatic activity, were assessed for their adenosine deaminase activity using the method described in Example 4. To perform the experiments, purified WT rHuADA2 and tested variants were prepared at 5 μg/mL concentration to normalize the amount of protein in each experiment.

| % activity vs. WT | Molecule | enzymatic activity relative to WT rHuADA2 | adenosine deaminase activity mU/mL | ΔA/min, adenosine deaminase activity |
| --- | --- | --- | --- | --- |
| 125.5% | K455D: ADA2 variant SEQ ID NO:26 (protein, human ADA2 K452D, mature numbering) IDETRAHLLLKEKMMRLGGRLVLNTKEELANERLMTLKIAEMKEAMRTLIFPPSMHFFQAKHLIERSQVFNILRMMPKGAALHLHDIGIVTMDWLVRNVTYRPHCHICFTPRGIMQFRFAHPTPRPSEKCSKWILLEDYRKRVQNVTEFDDSLLRNFTLVTQHPEVIYTNQNVVWSKFETIFFTISGLIHYAPVFRDYVFRSMQEFYEDNVLYMEIRARLLPVYELSGEHHDEEWSVKTYQEVAQKFVETHPEFIGIKIIYSDHRSKDVAVIAESIRMAMGLRIKFPTVVAGFDLVGHEDTGHSLHDYKEALMIPAKDGVKLPYFFHAGETDWQGTSIDRNILDALMLNTTRIGHGFALSKHPAVRTYSWKKDIPIEVCPISNQVLKLVSDLRNHPVATLMATGHPMVISSDDPAMFGAKGLSYDFYEVFMGIGGMKADLRTLKQLAMNSIDYSTLLESEKNTFMEIWKKRWDKFIADVATK | improved enzymatic activity | 97.9 mU/mL | 42.6 |
| 20.9% | K16E: ADA2 variant SEQ ID NO:18 (protein, human ADA2 K13E, mature numbering) IDETRAHLLLKEEMMRLGGRLVLNTKEELANERLMTLKIAEMKEAMRTLIFPPSMHFFQAKHLIERSQVFNILRMMPKGAALHLHDIGIVTMDWLVRNVTYRPHCHICFTPRGIMQFRFAHPTPRPSEKCSKWILLEDYRKRVQNVTEFDDSLLRNFTLVTQHPEVIYTNQNVVWSKFETIFFTISGLIHYAPVFRDYVFRSMQEFYEDNVLYMEIRARLLPVYELSGEHHDEEWSVKTYQEVAQKFVETHPEFIGIKIIYSDHRSKDVAVIAESIRMAMGLRIKFPTVVAGFDLVGHEDTGHSLHDYKEALMIPAKDGVKLPYFFHAGETDWQGTSIDRNILDALMLNTTRIGHGFALSKHPAVRTYSWKKDIPIEVCPISNQVLKLVSDLRNHPVATLMATGHPMVISSDDPAMFGAKGLSYDFYEVFMGIGGMKADLRTLKQLAMNSIKYSTLLESEKNTFMEIWKKRWDKFIADVATK |  | 16.3 mU/mL | 7.1 |
| 18% | K455A: ADA2 variant SEQ ID NO:25 (protein, human ADA2 K452A, mature numbering) IDETRAHLLLKEKMMRLGGRLVLNTKEELANERLMTLKIAEMKEAMRTLIFPPSMHFFQAKHLIERSQVFNILRMMPKGAALHLHDIGIVTMDWLVRNVTYRPHCHICFTPRGIMQFRFAHPTPRPSEKCSKWILLEDYRKRVQNVTEFDDSLLRNFTLVTQHPEVIYTNQNVVWSKFETIFFTISGLIHYAPVFRDYVFRSMQEFYEDNVLYMEIRARLLPVYELSGEHHDEEWSVKTYQEVAQKFVETHPEFIGIKIIYSDHRSKDVAVIAESIRMAMGLRIKFPTVVAGFDLVGHEDTGHSLHDYKEALMIPAKDGVKLPYFFHAGETDWQGTSIDRNILDALMLNTTRIGHGFALSKHPAVRTYSWKKDIPIEVCPISNQVLKLVSDLRNHPVATLMATGHPMVISSDDPAMFGAKGLSYDFYEVFMGIGGMKADLRTLKQLAMNSIAYSTLLESEKNTFMEIWKKRWDKFIADVATK |  | 14 mU/mL | 6.1 |

The next lines start with the molecule.

| Molecule | % activity vs. WT | enzymatic activity relative to WT rHuADA2 | adenosine deaminase activity mU/mL | ΔA/min, adenosine deaminase activity |
| --- | --- | --- | --- | --- |
| K14D: ADA2 variant SEQ ID NO:14 (protein, human ADA2 K11D, mature numbering) IDETRAHLLLDEKMMRLGGRLVLNTKEELANERLMTLKIAEMKEAMRTLIFPPSMHFFQAKHLIERSQVFNILRMMPKGAALHLHDIGIVTMDWLVRNVTYRPHCHICFTPRGIMQFRFAHPTPRPSEKCSKWILLEDYRKRVQNVTEFDDSLLRNFTLVTQHPEVIYTNQNVVWSKFETIFFTISGLIHYAPVFRDYVFRSMQEFYEDNVLYMEIRARLLPVYELSGEHHDEEWSVKTYQEVAQKFVETHPEFIGIKIIYSDHRSKDVAVIAESIRMAMGLRIKFPTVVAGFDLVGHEDTGHSLHDYKEALMIPAKDGVKLPYFFHAGETDWQGTSIDRNILDALMLNTTRIGHGFALSKHPAVRTYSWKKDIPIEVCPISNQVLKLVSDLRNHPVATLMATGHPMVISSDDPAMFGAKGLSYDFYEVFMGIGGMKADLRTLKQLAMNSIKYSTLLESEKNTFMEIWKKRWDKFIADVATK | 24% |  | 18.7 mU/mL | 8.1 |
| K16D: ADA2 variant SEQ ID NO:17 (protein, human ADA2 K13D, mature numbering) IDETRAHLLLKEDMMRLGGRLVLNTKEELANERLMTLKIAEMKEAMRTLIFPPSMHFFQAKHLIERSQVFNILRMMPKGAALHLHDIGIVTMDWLVRNVTYRPHCHICFTPRGIMQFRFAHPTPRPSEKCSKWILLEDYRKRVQNVTEFDDSLLRNFTLVTQHPEVIYTNQNVVWSKFETIFFTISGLIHYAPVFRDYVFRSMQEFYEDNVLYMEIRARLLPVYELSGEHHDEEWSVKTYQEVAQKFVETHPEFIGIKIIYSDHRSKDVAVIAESIRMAMGLRIKFPTVVAGFDLVGHEDTGHSLHDYKEALMIPAKDGVKLPYFFHAGETDWQGTSIDRNILDALMLNTTRIGHGFALSKHPAVRTYSWKKDIPIEVCPISNQVLKLVSDLRNHPVATLMATGHPMVISSDDPAMFGAKGLSYDFYEVFMGIGGMKADLRTLKQLAMNSIKYSTLLESEKNTFMEIWKKRWDKFIADVATK | 86.3% |  | 67.3 mU/mL | 29.3 |
| K16A: ADA2 variant SEQ ID NO:16 (protein, human ADA2 K13A, mature numbering) IDETRAHLLLKEAMMRLGGRLVLNTKEELANERLMTLKIAEMKEAMRTLIFPPSMHFFQAKHLIERSQVFNILRMMPKGAALHLHDIGIVTMDWLVRNVTYRPHCHICFTPRGIMQFRFAHPTPRPSEKCSKWILLEDYRKRVQNVTEFDDSLLRNFTLVTQHPEVIYTNQNVVWSKFETIFFTISGLIHYAPVFRDYVFRSMQEFYEDNVLYMEIRARLLPVYELSGEHHDEEWSVKTYQEVAQKFVETHPEFIGIKIIYSDHRSKDVAVIAESIRMAMGLRIKFPTVVAGFDLVGHEDTGHSLHDYKEALMIPAKDGVKLPYFFHAGETDWQGTSIDRNILDALMLNTTRIGHGFALSKHPAVRTYSWKKDIPIEVCPISNQVLKLVSDLRNHPVATLMATGHPMVISSDDPAMFGAKGLSYDFYEVFMGIGGMKADLRTLKQLAMNSIKYSTLLESEKNTFMEIWKKRWDKFIADVATK | 35.9% |  | 28 mU/mL | 12.2 |
| K14A: ADA2 variant SEQ ID NO:13 (protein, human ADA2 K11A, mature numbering) IDETRAHLLLAEKMMRLGGRLVLNTKEELANERLMTLKIAEMKEAMRTLIFPPSMHFFQAKHLIERSQVFNILRMMPKGAALHLHDIGIVTMDWLVRNVTYRPHCHICFTPRGIMQFRFAHPTPRPSEKCSKWILLEDYRKRVQNVTEFDDSLLRNFTLVTQHPEVIYTNQNVVWSKFETIFFTISGLIHYAPVFRDYVFRSMQEFYEDNVLYMEIRARLLPVYELSGEHHDEEWSVKTYQEVAQKFVETHPEFIGIKIIYSDHRSKDVAVIAESIRMAMGLRIKFPTVVAGFDLVGHEDTGHSLHDYKEALMIPAKDGVKLPYFFHAGETDWQGTSIDRNILDALMLNTTRIGHGFALSKHPAVRTYSWKKDIPIEVCPISNQVLKLVSDLRNHPVATLMATGHPMVISSDDPAMFGAKGLSYDFYEVFMGIGGMKADLRTLKQLAMNSIKYSTLLESEKNTFMEIWKKRWDKFIADVATK | 14.6% |  | 11.4 mU/mL | 4.9 |
